Test results: doi:10.1101/713511

Assays:
YDL085C-A = biological target: T1, YDL085C-A (S. cerevisiae, UniProt Q3E7B7 1-68); test: fluorescence anisotropy
T1 sequence: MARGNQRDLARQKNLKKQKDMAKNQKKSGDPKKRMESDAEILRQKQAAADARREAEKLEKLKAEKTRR

SERF1a [1] = biological target: T2, SERF1a (human, UniProt O75920-2 1-62); test: fluorescence anisotropy
T2 sequence: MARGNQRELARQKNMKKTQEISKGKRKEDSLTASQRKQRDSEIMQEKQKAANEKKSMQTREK

SERF1a [2] = biological target: T2, SERF1a; test: ITC
Atto550-SERF1a [3] = biological target: T3, Atto550-SERF1a (human, UniProt O75920-2 1-62); test: fluorescence anisotropy
T3 sequence: T2 sequence

Atto550-SERF1a [4] = biological target: T3, Atto550-SERF1a; test: fluorescence anisotropy; remark: listed apart in the source

With ACUGCUAGAGAUUUUCCACAU (ssRNA) [Cy3-R21(-)] the Kd (YDL085C-A) was 2.35 ± 0.56 µM and the Kd (SERF1a [1]) was 4.81 ± 0.48 µM.

Binder ACUGCUAGAGAUUUUCCACAU (ssRNA) [R21(-) / 21R(-)] has a Kd (SERF1a [2]) of 5.99 ± 2.32 µM and a Kd (Atto550-SERF1a [3]) of 4.39 ± 1.59 µM.

B1: dsDNA 21mer (dsDNA)
DNA 1: ATGTGGAAAATCTCTAGCAGT
DNA 2: ACTGCTAGAGATTTTCCACAT
B1: no binding (Atto550-SERF1a [4]).
